Drawing on US20140377253A1, this text covers EC50 for 4 substances.

FcgRIIB, sequence (P31994 43-310): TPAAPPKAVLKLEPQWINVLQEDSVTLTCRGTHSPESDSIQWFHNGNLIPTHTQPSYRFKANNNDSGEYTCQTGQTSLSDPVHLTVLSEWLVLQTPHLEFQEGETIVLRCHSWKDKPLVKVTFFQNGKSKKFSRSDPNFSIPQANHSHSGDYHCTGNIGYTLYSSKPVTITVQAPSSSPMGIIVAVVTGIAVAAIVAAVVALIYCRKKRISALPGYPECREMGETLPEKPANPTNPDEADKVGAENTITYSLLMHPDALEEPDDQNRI

One assay deals with FcgRIIIA (UniProt P08637). The assay can be described thus: FACS. On the technique in general: Flow cytometry measures light scatter and fluorescence of single cells or particles in a stream.
FcgRIIIA, sequence (P08637 17-254): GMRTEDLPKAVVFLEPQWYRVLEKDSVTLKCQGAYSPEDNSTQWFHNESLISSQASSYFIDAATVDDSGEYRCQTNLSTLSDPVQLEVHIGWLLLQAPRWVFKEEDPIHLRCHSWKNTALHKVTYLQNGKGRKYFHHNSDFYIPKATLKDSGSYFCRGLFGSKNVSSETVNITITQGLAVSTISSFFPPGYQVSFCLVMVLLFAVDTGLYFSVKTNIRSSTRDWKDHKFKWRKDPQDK
In general, EC50 refers to the concentration needed to bring the measured effect to its halfway point. A low value points to a more potent agent. L328F returned a concentration for a half-maximal effect (EC50) of 2.51 nM.

The substance N297A showed an EC50 of 3.67 nM.

Substance S267E yielded an EC50 of 1.24 nM.

In turn, SELF had an EC50 of 2.31 nM.

The next assay has as its target FcgRIIB (UniProt P31994). The assay can be described thus: FACS.
L328F: the EC50 amounted to 1.85 nM.

Take N297A: the EC50 turned out to be 2 nM.

With S267E, the EC50 came out at 0.64 nM.

Regarding SELF, the concentration for a half-maximal effect (EC50) is 0.32 nM.
